Source: patent US7968692B2, “Elongase genes and uses thereof” (Abbott Laboratories, priority 1998, dated 2011)

Key:
S. cerevisiae 334 [1] = assay: Human elongase HSELO1 activity in yeast; type: cell-based, Saccharomyces cerevisiae
Protocol: The construct pRAE-58-A1 was transformed into S. cerevisiae 334 (Hoveland et al., supra) and screened for elongase activity. The negative control strain was S. cerevisiae 334 containing pYX242 vector. The cultures were grown for 24 hours at 30° C., in selective media (Ausubel et al., supra), in the presence of 25 μM of GLA or AA. In this study, DGLA or adrenic acid (ADA, 22:4n-6), respectively, was the predicted product of human elongase activity. […] Thus, the human elongase converts both 18 and 20 carbon chain long PUFAs to their respective elongated fatty acids.
To further confirm the substrate specificity of the human elongation enzyme, described above and referred to herein as HSELO1, the recombinant yeast strain 334(pRAE-58-A1) was grown in minimal media containing n-6 fatty acids GLA, AA, or n-3 fatty acids ALA, STA, or EPA. […] The levels of these fatty acids were 7.29% (DGLA), 6.26% (ADA), 6.15% (ETrA), 10.06% (ETA), and 6.66% (DPA), respectively, of the total fatty acids in the strain containing the pRAE-58-A1 sequence.
To confirm this hypothesis, 25 μM of exogenous OA was added as a substrate to the recombinant yeast strain 334(pRAE-58-A1).
To determine whether the substrate concentration affects the conversion of 18 and 20 carbon fatty acids to the respective elongated products, two different concentrations of GLA, AA, and EPA were examined (FIG. 52).
Although the addition of more substrates led to higher percentages of the two carbon elongated products, the overall conversion rate decreased by at least 35%.
To further confirm the substrate specificity of HSELO1p, the recombinant yeast strain 334(pRAE-58-A1) was grown in minimal media containing 25 μM of saturated, monounsaturated, or PUFAs. […] However, this is not an increase in the level of OA compared to the samples where PTA was not added, as OA was 25-31% of the total fatty acids in all samples. […] The levels of these fatty acids were 0.74% (C20:2n-6), 2.46% (DGLA), and 2.14% (ADA), respectively, of the total fatty acids in the lysates of 334(pRAE-58-A1). […] HSELO1p is also involved in the elongation of n-3 PUFAs ALA, STA, and EPA, but not DPA (FIG. 53C). […] The levels of these fatty acids were 1.03% ETrA, 2.24% (ETA), and 3.19% (DPA), respectively, of the total fatty acids in the strain containing the pRAE-58-A1 sequence.

S. cerevisiae 334 [2] = assay: Mouse elongase MELO4 activity in yeast; type: cell-based, Saccharomyces cerevisiae
Protocol: The construct pRAE-84 was transformed into S. cerevisiae 334 (Hoveland et al., supra) and screened for elongase activity. The negative control strain was S. cerevisiae 334 containing pYX242 vector. The cultures were grown for 42-48 hours at 30° C., in selective media (Ausubel et al., supra), in the presence of 25 μM of GLA, AA, ADA, STA, EPA, or DPA. […] However, there were accumulations of ADA, ω6-tetracosatetraenoic acid (TTA, C24:4n-6), ETA, DPA, and ω3-tetracosapentaenoic acid (TPA, C24:5n-3), respectively (FIG. 56). The n-6 fatty acid substrate AA was converted to ADA, which was subsequently converted to TTA, and the n-3 fatty acid EPA was converted to DPA, which was subsequently converted to TPA. The levels of these fatty acids were 0.64% (ADA), 1.07% (TTA), 1.47% (DPA), and 7.06% (TPA), respectively, of the total fatty acids in the strain containing the pRAE-84 sequence. […] The expression of MELO4 in yeast results in the conversion of C20 and C22 fatty acids to the respective elongated products. The conversion rate of C22 to C24 fatty acids is much greater when the exogenously added substrate is […].
To further confirm the substrate specificity of MELO4 protein (MELO4), the recombinant yeast strain 334(pRAE-84) was grown in minimal media containing 25 μM of saturated, monounsaturated, or polyunsaturated fatty acids. […] When AA was added exogenously, the levels of product fatty acids were 0.5% (ADA) and 0.39% (TTA), and when ADA was added exogenously, the level of product fatty acid was 1.3% (TTA) of the total fatty acids in the strain containing the pRAE-84 sequence. […] MELO4p is also involved in the elongation of GLA to DGLA. The lipid profile of the strain containing the pRAE-84 sequence, in presence of GLA, had 0.43% of DGLA, which represented 14.7% conversion of GLA to DGLA. MELO4p is also involved in the elongation of n-3 PUFAs EPA and DPA (FIG. 53C). […] When EPA was added, the levels of these fatty acids were 1.21% (DPA) and 3.38% (TPA), and when DPA was added, the level of the product fatty acid was 3.09% (TPA) of the total fatty acids in the strain containing the pRAE-84 sequence. […] MELO4p is also involved in the elongation of STA to C22:4n-3. When STA was added, the levels of fatty acids produced by two-carbon elongation were 0.3% ETA and 0.23% C22:4n-3. […] MELO4p also appeared to be involved in the elongation of ALA; however, the small amount of the fatty acid produced by two-carbon elongation (0.16% of ETrA) may not be significant.

[3] = 25 μM AA added exogenously, FIG. 57B
[4] = 25 μM ADA added exogenously, FIG. 57B
[5] = 25 μM DPA added, second experiment
[6] = 25 μM EPA added, second experiment
[7] = C22 substrate ADA added, 25 μM, FIG. 56
[8] = C22 substrate printed as EPA, 25 μM, FIG. 56

B1: HSELO1: human elongase from liver cDNA (SEQ ID NO:3), expressed in yeast from pRAE-58-A1 (protein, listed as Homo sapiens)
chain: MEHFDASLSTYFKALLGPRDTRVKGWFLLDNYIPTFICSVIYLLIVWLGPKYMRNKQPFSCRGILVVYNLGLTLLSLYMFCELVTGVWEGKYNFFCQGTRTAGESDMKIIRVLWWYYFSKLIEFMDTFFFILRKNNHQITVLHVYHHASMLNIWWFVMNWVPCGHSYFGATLNSFIHVLMYSYYGLSSVPSMRPYLWWKKYITQGQLLQFVLTIIQTSCGVIWPCTFPLGWLYFQIGYIISLIALFTNFYIQTYNKKGASRRKDHLKDHQNGSVAAVNGHTNSFSPLENNVKPRKLRKD
S. cerevisiae 334 [1]; 25 μM AA, 24 hours at 30° C., FIG. 45
  level of ADA, of total fatty acids: 1.21%
S. cerevisiae 334 [1]; 25 μM AA, FIG. 52
  conversion of AA to ADA: 27.5%
  level of ADA, of the total fatty acids: 2.91%
S. cerevisiae 334 [1]; 25 μM AA, FIG. 53B
  conversion of AA to ADA: 27.1%
  level of ADA, of the total fatty acids: 2.14%
S. cerevisiae 334 [1]; 25 μM ALA, FIG. 53C
  conversion of ALA to ETrA: 22.2%
  level of ETrA, of the total fatty acids: 1.03%
S. cerevisiae 334 [1]; 25 μM EPA, FIG. 52
  conversion of EPA to DPA: 70.3%
  level of DPA, of the total fatty acids: 4.82%
S. cerevisiae 334 [1]; 25 μM EPA, FIG. 53C
  conversion of EPA to DPA: 39.5%
  level of DPA, of the total fatty acids: 3.19%
S. cerevisiae 334 [1]; 25 μM GLA, 24 hours at 30° C., FIG. 45
  level of DGLA, of total fatty acids: 2.75%
S. cerevisiae 334 [1]; 25 μM GLA, FIG. 52
  conversion of GLA to DGLA: 62.4%
  level of DGLA, of the total fatty acids: 3.95%
S. cerevisiae 334 [1]; 25 μM GLA, FIG. 53B
  conversion of GLA to DGLA: 51.4%
  level of DGLA, of the total fatty acids: 2.46%
S. cerevisiae 334 [1]; 25 μM LA, FIG. 53B
  conversion of LA to C20:2n-6: 13.2%
  level of C20:2n-6, of the total fatty acids: 0.74%
S. cerevisiae 334 [1]; 25 μM STA, FIG. 53C
  conversion of STA to ETA: 61.9%
  level of ETA, of the total fatty acids: 2.24%
S. cerevisiae 334 [1]; 25 μM of exogenous OA
  conversion of OA to EA: 8.9%
S. cerevisiae 334 [1]; 25 μM of exogenous OA, FIG. 51
  accumulation of EA, of the total fatty acids: 2.25%
S. cerevisiae 334 [1]; 25 μM substrate
  elongation of monounsaturated fatty acids OA and EA: also not involved
S. cerevisiae 334 [1]; 25 μM substrate, FIG. 53A
  elongation of saturated fatty acids PA, SA, ARA, BA: not involved
S. cerevisiae 334 [1]; 25 μM substrate, FIG. 53B
  elongation of n-6 PUFAs DGLA or ADA: but not DGLA or ADA
S. cerevisiae 334 [1]; 25 μM substrate, FIG. 53C
  elongation of n-3 PUFA DPA: but not DPA
S. cerevisiae 334 [1]; 100 μM AA, FIG. 52
  conversion of AA to ADA: 15.7%
  level of ADA, of the total fatty acids: 3.90%
S. cerevisiae 334 [1]; 100 μM EPA, FIG. 52
  conversion of EPA to DPA: 45.7%
  level of DPA, of the total fatty acids: 11.50%
S. cerevisiae 334 [1]; 100 μM GLA, FIG. 52
  conversion of GLA to DGLA: 39.8%
  level of DGLA, of the total fatty acids: 9.56%
S. cerevisiae 334 [1]; 100 μM versus 25 μM of substrates GLA, AA, EPA
  decrease of overall conversion rate: at least 35%
S. cerevisiae 334 [1]; PTA added as a substrate, not an increase, OA was 25-31% in all samples
  OA, of the total fatty acids: 12.76%
S. cerevisiae 334 [1]; endogenous substrate
  endogenous conversion of C16:1n-7 to C18:1n-7: 20.4%
  endogenous conversion of C18:1n-7 to C20:1n-7: 58.1%
S. cerevisiae 334 [1]; substrate AA, FIG. 51
  conversion of AA to ADA: 42.7%
  level of ADA, of the total fatty acids: 6.26%
S. cerevisiae 334 [1]; substrate ALA, FIG. 51
  conversion of ALA to ETrA: 30.4%
  level of ETrA, of the total fatty acids: 6.15%
S. cerevisiae 334 [1]; substrate EPA, FIG. 51
  conversion of EPA to DPA: 71.7%
  level of DPA, of the total fatty acids: 6.66%
S. cerevisiae 334 [1]; substrate GLA, FIG. 51
  conversion of GLA to DGLA: 78.3%
  level of DGLA, of the total fatty acids: 7.29%
S. cerevisiae 334 [1]; substrate STA, FIG. 51
  conversion of STA to ETA: 79.2%
  level of ETA, of the total fatty acids: 10.06%

B2: MELO4: mouse PUFA elongation enzyme from brain cDNA (SEQ ID NO:5), expressed in yeast from pRAE-84 (protein, listed as Mus musculus)
chain: MEQLKAFDNEVNAFLDNMFGPRDSRVRGWFLLDSYLPTFILTITYLLSIWLGNKYMKNRPALSLRGILTLYNLAITLLSAYMLVELILSSWEGGYNLQCQNLDSAGEGDVRVAKVLWWYYFSKLVEFLDTIFFVLRKKTNQITFLHVYHHASMFNIWWCVLNWIPCGQSFFGPTLNSFIHILMYSYYGLSVFPSMHKYLWWKKYLTQAQLVQFVLTITHTLSAVVKPCGFPFGCLIFQSSYMMTLVILFLNFYIQTYRKKPVKKELQEKEVKNGFPKAHLIVANGMTDKKAQ
S. cerevisiae 334 [2]; [3]
  conversion of AA to ADA: 8.7%
  conversion of ADA to TTA: 43.8%
  level of ADA, of the total fatty acids: 0.5%
  level of TTA, of the total fatty acids: 0.39%
S. cerevisiae 334 [2]; 25 μM AA added, FIG. 56
  conversion of AA to ADA: 10.4%
  conversion of ADA to TTA: 62.6%
  level of ADA, of the total fatty acids: 0.64%
  level of TTA, of the total fatty acids: 1.07%
S. cerevisiae 334 [2]; [4]
  conversion of ADA to TTA: 7.3%
  level of TTA, of the total fatty acids: 1.3%
S. cerevisiae 334 [2]; 25 μM ALA, may not be significant
  level of ETrA: 0.16%
S. cerevisiae 334 [2]; [5]
  conversion of DPA to TPA: 46.4%
  level of TPA, of the total fatty acids: 3.09%
S. cerevisiae 334 [2]; 25 μM EPA added, FIG. 56
  conversion of DPA to TPA: 82.8%
  conversion of EPA to DPA: 32.7%
  level of DPA, of the total fatty acids: 1.47%
  level of TPA, of the total fatty acids: 7.06%
S. cerevisiae 334 [2]; [6]
  conversion of DPA to TPA: 73.6%
  conversion of EPA to DPA: 24.0%
  level of DPA, of the total fatty acids: 1.21%
  level of TPA, of the total fatty acids: 3.38%
S. cerevisiae 334 [2]; 25 μM GLA, 42-48 hours at 30° C., FIG. 56
  elongation of GLA to DGLA: GLA was not elongated
S. cerevisiae 334 [2]; 25 μM GLA, FIG. 57B
  conversion of GLA to DGLA: 14.7%
  level of DGLA in lipid profile: 0.43%
S. cerevisiae 334 [2]; 25 μM STA added
  conversion of ETA to C22:4n-3: 43.4%
  conversion of STA to ETA: 11.1%
  level of C22:4n-3: 0.23%
  level of ETA: 0.3%
S. cerevisiae 334 [2]; 25 μM substrate
  elongation of monounsaturated fatty acids PTA, OA, or EA: also not involved
S. cerevisiae 334 [2]; 25 μM substrate, FIG. 57A
  elongation of saturated fatty acids PA, SA, ARA, or BA: not involved
S. cerevisiae 334 [2]; [7]
  conversion of ADA to TTA: 9.2%
  level of TTA, of the total fatty acids: 2.4%
S. cerevisiae 334 [2]; [8]
  conversion of C22 substrate to TPA: 43.9%
  level of TPA, of the total fatty acids: 3.82%
